The values that follow come from PMC7924223, “Functionalization of the BCL6 BTB domain into a noncovalent crystallization chaperone” (IUCrJ, 2021).

This assay has as its target BCL6 BTB domain (BCL6^BTB), residues 6-129 with C8Q, C67R and C84N (human, UniProt P41182 6-129, C8Q | C67R | C84N). The assay can be described thus: crystal structure; co-crystallization at 298 K; BCL6 proteins at 300 µM (monomer) in 20 mM HEPES pH 7.5, 300 mM NaCl, 3 mM β-mercaptoethanol; NCoR1^BBD1 peptide in 4:1, NCoR1^BBD2 peptide in 8:1 molar excess; the complex with nebulin^SH3-NCoR1^BBD1 purified by size-exclusion chromatography before crystallization. The following applies: both partners purified.

B1: NCoR1^BBD1 peptide (high-affinity BCL6-binding domain 1 of the corepressor NCoR1) (peptide)
peptide: GITTIKEMGRSIHEIPR
notes: source: synthetic peptide (GL Biochem Shanghai Ltd)
Take B1: the binding result is reported as “binds”.
